Assays:
[1] = molecular target: T1, TATA-binding protein (TBP) (human, UniProt P20226 1-339); test: EMSA; conditions: EMSA: 20 mM HEPES-KOH pH 7.6, 5 mM MgCl2, 70 mM KCl, 1 mM EDTA, 100 ug/ml BSA, 0.01% NP-40, 5% glycerol, 25 C, 0.3 nM TBP titrated with ODN; stopped-flow: …
[2] = molecular target: T1, TATA-binding protein (TBP); test: stopped-flow fluorescence (FRET); EMSA: 20 mM HEPES-KOH pH 7.6, 5 mM MgCl2, 70 mM KCl, 1 mM EDTA, 100 ug/ml BSA, 0.01% NP-40, 5% glycerol, 25 C, 0.3 nM TBP titrated with ODN; stopped-flow: 0.1 uM ODN, 0.1-1.0 uM TBP, buffer not stated; conditions: protein: recombinant; label: 5'-TAMRA and 5'-FAM; blunt

T1 sequence (P20226 whole entry): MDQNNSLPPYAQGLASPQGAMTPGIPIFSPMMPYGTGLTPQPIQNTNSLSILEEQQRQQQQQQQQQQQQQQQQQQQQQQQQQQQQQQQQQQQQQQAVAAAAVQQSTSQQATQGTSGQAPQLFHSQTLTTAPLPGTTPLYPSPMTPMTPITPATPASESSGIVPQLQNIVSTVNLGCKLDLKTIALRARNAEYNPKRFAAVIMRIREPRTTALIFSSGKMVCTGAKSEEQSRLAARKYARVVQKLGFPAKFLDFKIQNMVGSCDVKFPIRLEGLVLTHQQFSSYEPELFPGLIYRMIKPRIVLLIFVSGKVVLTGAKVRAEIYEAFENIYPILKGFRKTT

For “HBB promoter ODN, ancestral (rs33981098 a)”, which Kd [1] is on record?
Its Kd is 44 nM.

Which Kd [1] does the source give for HBB promoter ODN, minor (rs33981098) here?
The Kd was 90 nM.

B1: TPI1 promoter ODN, minor (rs1800202 g) (dsDNA)
DNA 1: CTCTATAGAAGTGGG
DNA 2: CCCACTTCTATAGAG
How did the Kd [2] turn out when B1 was run?
The Kd was 6 nM.

B2: TPI1 promoter ODN, ancestral (rs1800202 t) (dsDNA)
DNA 1: CTCTATATAAGTGGG
DNA 2: CCCACTTATATAGAG
B2 was tested. Which Kd [2] did it give?
Its Kd is 1 nM.

From paper PMC5836831, “Candidate SNP markers of reproductive potential are predicted by a significant change in the affinity of TATA-binding protein for human gene promoters”
